T1: BTN2A2-Fc (recombinant human BTN2A2 Fc-chimera, HEK293-expressed, R&D Systems) (human, UniProt Q8WVV5 33-265)
T1 construct: Bought Fc-chimera; Biotinylated for the yeast display selections; not shown: Fc part of the bought Fc-chimera
T1 sequence (looked up): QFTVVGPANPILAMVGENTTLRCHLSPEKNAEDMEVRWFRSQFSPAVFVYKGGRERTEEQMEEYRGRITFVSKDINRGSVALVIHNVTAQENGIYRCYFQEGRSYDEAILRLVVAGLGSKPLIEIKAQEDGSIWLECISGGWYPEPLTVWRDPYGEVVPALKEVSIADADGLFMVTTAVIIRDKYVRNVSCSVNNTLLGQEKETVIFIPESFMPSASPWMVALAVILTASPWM

B1: BTN3A1-Fc (recombinant human BTN3A1 Fc-chimera, HEK293-expressed, R&D Systems) (Fc fusion, not shown: a dimerising Fc or GST)
chain: not shown

Assays:
[1] = molecular target: T1, BTN2A2-Fc (recombinant human BTN2A2 …); assay: Octet isoform binding screen
[2] = molecular target: B1; assay: binding affinity, method not stated (Octet named in text)
[3] = molecular target: T2, BTN3A2-Fc (recombinant human BTN3A2 Fc-chimera, HEK293-expressed, R&D Systems) (human, UniProt P78410 30-248); assay: as above
T2 construct: Bought Fc-chimera; Biotinylated for the yeast display selections; not shown: Fc part of the bought Fc-chimera
T2 sequence (P78410 30-248, change not shown): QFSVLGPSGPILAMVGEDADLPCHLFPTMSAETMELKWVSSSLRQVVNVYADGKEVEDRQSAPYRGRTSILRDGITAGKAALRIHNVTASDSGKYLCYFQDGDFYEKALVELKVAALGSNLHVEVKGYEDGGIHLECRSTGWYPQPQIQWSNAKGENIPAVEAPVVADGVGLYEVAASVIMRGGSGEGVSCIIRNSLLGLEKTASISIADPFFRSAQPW

[4] = molecular target: T3, BTN3A3-Fc (recombinant human BTN3A3 Fc-chimera, HEK293-expressed, R&D Systems) (human, UniProt O00478 30-248); assay: as above
T3 construct: Bought Fc-chimera; Biotinylated for the yeast display selections; not shown: Fc part of the bought Fc-chimera
T3 sequence (O00478 30-248, change not shown): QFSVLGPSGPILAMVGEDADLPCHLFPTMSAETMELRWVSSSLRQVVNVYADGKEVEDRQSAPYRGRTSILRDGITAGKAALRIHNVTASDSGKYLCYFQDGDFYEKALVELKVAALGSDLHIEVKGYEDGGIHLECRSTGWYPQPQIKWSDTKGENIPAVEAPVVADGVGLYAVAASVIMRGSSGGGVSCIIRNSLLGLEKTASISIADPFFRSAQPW

[5] = molecular target: T2, BTN3A2-Fc (recombinant human BTN3A2 …); assay: Octet isoform binding screen
[6] = molecular target: anti-BTN3A antibody (clone 20.1, Biolegend, catalog #342702); assay: cell-based or functional assay
[7] = molecular target: T3, BTN3A3-Fc (recombinant human BTN3A3 …); assay: Octet isoform binding screen

| Binder | binding result [1] | Kd [2] [nM] | Kd [3] [nM] | Kd [4] [nM] | binding result [5] | IC50 (read off the curve): inhibition of 20.1-mediated reactivation of latent HIV (luciferase RLU) [6] [µg/mL] | binding result [7] |
| --- | --- | --- | --- | --- | --- | --- | --- |
| Antibody 1G (antibody, IgG1, V domains shown, isotype hIgG1-297A (IgG1 N297A); kappa germline VK3-15.10) VH: QVQLVQSGAEVKKPGASVKVSCKASGYTFTSYGISWVRQAPGQGLEWMGWISAYNGNTNYAQKLQGRVTMTTDTSTSTAYMELRSLRSDDTAVYYCARLGATVAYFDLWGRGTLVTVSS VL: EIVLTQSPATLSVSPGERATLSCRASQSVSSNLAWYQQKPGQAPRLLIYGASTRATGIPARFSGSGSGTEFTLTISSLQSEDFAVYYCQQDVYWPFTFGGGTKVEIK | no binding | 0.974 | 2.71 | 1.13 |  |  |  |
| Antibody 3B (antibody, IgG1, V domains shown, isotype hIgG1-297A (IgG1 N297A); kappa germline VK3-11.0) VH: QVQLVQSGAEVKKPGASVKVSCKASGYTFTSYYMHWVRQAPGQGLEWMGIINPSGGSTSYAQKFQGRVTMTRDTSTSTVYMELSSLRSEDTAVYYCARPSGDYSGYDALDVWGQGTMVTVSS VL: EIVLTQSPATLSLSPGERATLSCRASQSVSSYLAWYQQKPGQAPRLLIYDASNRATGIPARFSGSGSGTDFTLTISSLEPEDFAVYYCQQDPYWPITFGGGTKVEIK | no binding | 2.1 | 4.57 | 2.08 |  |  |  |
| Antibody 2A (antibody, IgG1, V domains shown, isotype hIgG1-297A (IgG1 N297A); kappa germline VK3-15.1) VH: QVQLVQSGAEVKKPGASVKVSCKASGYTFTSYYIHWVRQAPGQGLEWMGIINPSGGSTSYAQKFQGRVTMTRDTSTSTVYMELSSLRSEDTAVYYCARATWEALHYWGQGTLVTVSS VL: EIVMTQSPATLSVSPGERATLSCRASQSVGSNLAWYQQKPGQAPRLLIYGASTRATGIPARFSGSGSGTEFTLTISSLQSEDFAVYYCQQYYAWPRTFGGGTKVEIK | no binding | 4.38 |  | 8.52 | no binding |  |  |
| B1 |  |  |  |  |  | ~0.2 |  |
| Antibody 2L (antibody, IgG1, V domains shown, isotype hIgG1-297A (IgG1 N297A); kappa germline VK1-12.7) VH: not shown VL: DIQMTQSPSSVSASVGDRVTITCRASQGISSWLAWYQQKPGKAPKLLIYAASNLQSGVPSRFSGSGSGTDFTLTISSLQPEDFATYYCQQGNDLPITFGGGTKVEIK | no binding | 3.94 |  |  | no binding |  | no binding |
| Antibody 1F (antibody, IgG1, V domains shown, isotype hIgG1-297A (IgG1 N297A); kappa germline VK3-20.0) VH: QVQLQESGPGLVKPSQTLSLTCTVSGGSISSGGYYWSWIRQHPGKGLEWIGSIYYSGSTYYNPSLKSRVTISVDTSKNQFSLKLSSVTAADTAVYYCARLHSSQSSSTYWGQGTLVTVSS VL: not shown | no binding | 1.53 |  |  | no binding |  | no binding |
| Antibody 3A (antibody, IgG1, V domains shown, isotype hIgG1-297A (IgG1 N297A); kappa germline VK1-05.6) VH: QVQLVQSGAEVKKPGASVKVSCKASGYTFTSYYMHWVRQAPGQGLEWMGIINPGGGSTSYAQKFQGRVTMTRDTSTSTVYMELSSLRSEDTAVYYCARDAGHDYGDMAYWGQGTLVTVSS VL: DIQMTQSPSTLSASVGDRVTITCRASQSISSWLAWYQQKPGKAPKLLIYKASSLESGVPSRFSGSGSGTEFTLTISSLQPDDFATYYCQQYRSFPTFGGGTKVEIK | no binding | 2.76 |  | 1.4 | no binding |  |  |
